Assay results published in patent US20120222143.

What was measured:
Assay in all cases: cell_activity
[1] = system: ACAN12 TALEN pair (left and right, FokI homodimer) (synthetic construct); settings: fibroblasts, day 3 SURVEYOR
[2] = system: DMDE6 TALEN pair (left and right) (synthetic construct); settings: pig fibroblasts, day 3, co-transfected with DMDE7.1
[3] = system: DMDE7.1 TALEN pair (left and right, FokI homodimer) (synthetic construct); settings: fibroblasts, day 3 SURVEYOR
[4] = system: btGDF83.1 TALEN pair (left and right) (synthetic construct); settings: bovine fibroblasts, SURVEYOR; active at 30 and 37 C
[5] = system: p65 (RELA) TALEN pair (left and right) (synthetic construct); settings: porcine zygotes, 10 ng/ul mRNA each TALEN, 16 of 56

## ACAN12 target locus
[1]
  activity (% chromosomes cleaved (NHEJ)): 25

## DMD exon 6 target locus
[2]
  activity: 24 % NHEJ

## DMD exon 7 target locus
[3]
  activity (% chromosomes cleaved (NHEJ)): 38

## GDF8 exon 3 target locus
[4]
  activity (% chromosomes cleaved (NHEJ)): < 16

## p65 target locus
[5]
  activity (% embryos with indels): 29
